The Immune Epitope Database (IEDB)

What was measured:
HLA-A*02:01 [1] = assay: IEDB peptide-MHC binding, purified MHC/competitive/radioactivity; ≥ and ≤ were set here for values at or beyond the usual limits of such assays
HLA-C*14:02 = assay: IEDB peptide-MHC binding, purified MHC/direct/fluorescence; filed as Kd, often an IC50 or EC50 that approximates it; ≥ and ≤ were set here for values at or beyond the usual limits of such assays
HLA-A*31:01 = assay: as above
HLA-A*69:01 = assay: as above
HLA-A*02:01 [2] = assay: as above
HLA-B*18:01 = assay: as above; settings: source organism: Marburg virus - Musoke, Kenya, 1980
HLA-B*15:17 = assay: as above
HLA-A*01:01 = assay: as above
HLA-A*11:01 = assay: as above
HLA-B*08:01 = assay: as above
HLA-B*57:01 = assay: as above
HLA-B*58:01 = assay: as above
HLA-B*15:01 [3] = assay: IEDB peptide-MHC binding, purified MHC/competitive/fluorescence; filed as Kd, often an IC50 or EC50 that approximates it; ≥ and ≤ were set here for values at or beyond the usual limits of such assays
HLA-A*26:02 = assay: as above; settings: source organism: Orthomarburgvirus marburgense
HLA-A*30:01 = assay: as above; settings: source organism: Orthomarburgvirus marburgense
HLA-B*07:02 [4] = assay: as above
HLA-C*05:01 = assay: IEDB peptide-MHC binding, purified MHC/direct/fluorescence; filed as Kd, often an IC50 or EC50 that approximates it; ≥ and ≤ were set here for values at or beyond the usual limits of such assays
HLA-B*45:06 = assay: IEDB peptide-MHC binding, purified MHC/competitive/fluorescence; filed as Kd, often an IC50 or EC50 that approximates it; ≥ and ≤ were set here for values at or beyond the usual limits of such assays; settings: source organism: Mycobacterium tuberculosis C
HLA-B*83:01 = assay: as above; settings: source organism: Mycobacterium tuberculosis C
HLA-B*15:42 = assay: as above; settings: source organism: Mycobacterium tuberculosis C
HLA-C*06:02 = assay: IEDB peptide-MHC binding, purified MHC/direct/fluorescence; filed as Kd, often an IC50 or EC50 that approximates it; ≥ and ≤ were set here for values at or beyond the usual limits of such assays
HLA-A*02:03 = assay: as above; settings: source organism: Variola virus
HLA-C*03:03 = assay: as above
HLA-C*12:03 = assay: as above
HLA-B*35:01 = assay: IEDB peptide-MHC binding, purified MHC/competitive/fluorescence; filed as Kd, often an IC50 or EC50 that approximates it; ≥ and ≤ were set here for values at or beyond the usual limits of such assays; settings: source organism: Camelpox virus M-96
HLA-B*39:01 = assay: as above
HLA-B*27:05 [5] = assay: as above
HLA-C*15:02 = assay: IEDB peptide-MHC binding, purified MHC/direct/fluorescence; filed as Kd, often an IC50 or EC50 that approximates it; ≥ and ≤ were set here for values at or beyond the usual limits of such assays
HLA-B*46:01 [6] = assay: as above; settings: source organism: Lake Victoria marburgvirus - Popp
HLA-A*68:02 = assay: as above; settings: source organism: Lake Victoria marburgvirus - Popp
HLA-B*08:03 = assay: as above; settings: source organism: Orthomarburgvirus marburgense
HLA-B*27:05 [7] = assay: as above; settings: source organism: Lake Victoria marburgvirus - Popp
HLA-B*48:01 = assay: as above; settings: source organism: Lake Victoria marburgvirus - Popp
HLA-B*15:01 [8] = assay: as above; settings: source organism: Lake Victoria marburgvirus - Popp
HLA-B*40:01 [9] = assay: as above; settings: source organism: Lake Victoria marburgvirus - Popp
HLA-A*03:01 = assay: as above; settings: source organism: Lake Victoria marburgvirus - Popp
HLA-B*07:02 [10] = assay: as above; settings: source organism: Lake Victoria marburgvirus - Popp
HLA-A*26:01 = assay: as above; settings: source organism: Orthomarburgvirus marburgense
HLA-A*02:06 = assay: IEDB peptide-MHC binding, purified MHC/competitive/fluorescence; filed as Kd, often an IC50 or EC50 that approximates it; ≥ and ≤ were set here for values at or beyond the usual limits of such assays; settings: source organism: Orthomarburgvirus marburgense
HLA-B*40:01 [11] = assay: as above
HLA-A*23:01 = assay: IEDB peptide-MHC binding, purified MHC/direct/fluorescence; filed as Kd, often an IC50 or EC50 that approximates it; ≥ and ≤ were set here for values at or beyond the usual limits of such assays; settings: source organism: Vibrio cholerae
HLA-C*07:02 = assay: as above; settings: source organism: Vibrio cholerae AM-19226
HLA-A*24:03 = assay: as above; settings: source organism: Vibrio cholerae
HLA-B*46:01 [12] = assay: IEDB peptide-MHC binding, purified MHC/competitive/fluorescence; filed as Kd, often an IC50 or EC50 that approximates it; ≥ and ≤ were set here for values at or beyond the usual limits of such assays; settings: source organism: Vibrio cholerae AM-19226
[13] = source organism: Mycobacterium tuberculosis H37Ra
[14] = source organism: Pseudomonas aeruginosa
[15] = source organism: Marburg virus - Musoke, Kenya, 1980
[16] = source organism: Orthomarburgvirus marburgense
[17] = source organism: Camelpox virus M-96
[18] = source organism: Camelpox virus CMS
[19] = source organism: Rickettsia massiliae MTU5
[20] = source organism: Lake Victoria marburgvirus - Popp
[21] = source organism: Escherichia coli O139:H28 str. E24377A
[22] = source organism: Vibrio cholerae AM-19226

Sequence: GLIDIAPHQISS
- IC50 (HLA-A*02:01 [1]; [13]): 173 nM

Sequence: AYFATPASV
- Kd (HLA-C*14:02; source organism: Pseudomonas aeruginosa 2192): ≤ 1 nM
- Kd (HLA-A*31:01; [14]): 207 nM
- Kd (HLA-A*69:01; [14]): 4370 nM
- Kd (HLA-A*02:01 [2]; [14]): 2270 nM

Sequence: QGKQHLHSL
- Kd (HLA-B*18:01): ≥ 20000 nM
- Kd (HLA-B*15:17; [15]): ≥ 20000 nM
- Kd (HLA-A*01:01; [15]): ≥ 20000 nM
- Kd (HLA-A*31:01; [15]): ≥ 20000 nM
- Kd (HLA-A*11:01; [15]): ≥ 20000 nM
- Kd (HLA-B*08:01; [15]): 212 nM
- Kd (HLA-A*69:01; [15]): ≥ 20000 nM
- Kd (HLA-B*57:01; [15]): ≥ 20000 nM
- Kd (HLA-B*58:01; [15]): ≥ 20000 nM
- Kd (HLA-B*15:01 [3]; [16]): 4000 nM
- Kd (HLA-A*26:02): ≥ 20000 nM
- Kd (HLA-A*30:01): ≥ 20000 nM
- Kd (HLA-B*07:02 [4]; [16]): ≥ 20000 nM

Sequence: YPRNGWPAL
- Kd (HLA-C*05:01; source organism: Mycobacterium tuberculosis C): ≥ 20000 nM
- Kd (HLA-B*45:06): ≥ 5000 nM
- Kd (HLA-B*83:01): 34.9 nM
- Kd (HLA-B*15:42): ≥ 5000 nM

Sequence: ILDAHSLYL
- IC50 (HLA-A*02:01 [1]; source organism: Rift Valley fever virus): 1.3 nM

Sequence: KINIFMAFL
- Kd (HLA-C*14:02; source organism: Taterapox virus): ≥ 20000 nM

Sequence: EIRTFSFQL
- Kd (HLA-B*07:02 [4]; source organism: Influenza A virus (A/duck/England/1/1956(H11N6))): ≥ 20000 nM

Sequence: HMTEVVRRC
- IC50 (HLA-A*02:01 [1]; source organism: Homo sapiens): 10200 nM

Sequence: YRYSLSSDL
- Kd (HLA-C*06:02; source organism: Vaccinia virus WR): 4 nM

Sequence: LMDENTYAM
- Kd (HLA-C*05:01; [17]): 7 nM
- Kd (HLA-A*02:03): 20 nM
- Kd (HLA-C*03:03; [17]): 592 nM
- Kd (HLA-A*69:01; [18]): 57.8 nM
- Kd (HLA-A*02:01 [2]; [18]): ≤ 1 nM
- Kd (HLA-C*12:03; [17]): ≥ 20000 nM
- Kd (HLA-B*35:01): 0.2 nM

Sequence: VLMAVVLASL
- IC50 (HLA-A*02:01 [1]; source organism: Homo sapiens): 45.7 nM

Sequence: YQERFVLAL
- Kd (HLA-B*39:01; [13]): 1.7 nM
- Kd (HLA-B*27:05 [5]; [13]): 946 nM

Sequence: FMRFAFLSM
- Kd (HLA-C*15:02; [19]): ≥ 20000 nM
- Kd (HLA-C*06:02; [19]): ≥ 20000 nM
- Kd (HLA-C*12:03; [19]): 894 nM

Sequence: KNYPASLHK
- Kd (HLA-B*46:01 [6]): ≥ 20000 nM
- Kd (HLA-A*68:02): ≥ 20000 nM
- Kd (HLA-B*08:03): ≥ 20000 nM
- Kd (HLA-B*15:17; [20]): ≥ 20000 nM
- Kd (HLA-B*27:05 [7]): ≥ 20000 nM
- Kd (HLA-A*01:01; [20]): ≥ 20000 nM
- Kd (HLA-B*48:01): ≥ 20000 nM
- Kd (HLA-B*15:01 [8]): ≥ 20000 nM
- Kd (HLA-B*40:01 [9]): ≥ 20000 nM
- Kd (HLA-A*03:01): 102 nM
- Kd (HLA-A*31:01; [20]): ≥ 20000 nM
- Kd (HLA-A*11:01; [20]): 91.7 nM
- Kd (HLA-B*08:01; [16]): ≥ 20000 nM
- Kd (HLA-B*07:02 [10]): ≥ 20000 nM
- Kd (HLA-A*26:01): ≥ 20000 nM
- Kd (HLA-A*02:01 [2]; [20]): ≥ 20000 nM
- Kd (HLA-B*57:01; [20]): ≥ 20000 nM
- Kd (HLA-B*58:01; [20]): ≥ 20000 nM
- Kd (HLA-A*02:06): 627 nM
- Kd (HLA-A*26:02): ≥ 20000 nM

Sequence: RQGWARAML
- Kd (HLA-B*39:01; [21]): ≥ 20000 nM
- Kd (HLA-B*27:05 [5]; [21]): 191 nM
- Kd (HLA-B*15:01 [3]; [21]): 143 nM
- Kd (HLA-B*40:01 [11]; [21]): 313 nM

Sequence: SPYNSRFESV
- Kd (HLA-B*07:02 [4]; source organism: Influenza A virus): 3.4 nM

Sequence: GEDAKLIAV
- Kd (HLA-B*40:01 [11]; source organism: Escherichia coli 536): 3.8 nM

Sequence: YALPSAGAF
- Kd (HLA-A*23:01): 445 nM
- Kd (HLA-C*14:02; [22]): 46 nM
- Kd (HLA-C*07:02): 404 nM
- Kd (HLA-A*24:03): 290 nM
- Kd (HLA-C*03:03; [22]): ≤ 1 nM
- Kd (HLA-C*15:02; [22]): 386 nM
- Kd (HLA-B*46:01 [12]): 34.5 nM

Sequence: FLPVDFFPSI
- IC50 (HLA-A*02:01 [1]; source organism: Hepatitis B virus): 35 nM

Sequence: FRWTQSLRR
- Kd (HLA-B*27:05 [5]; source organism: Mammarenavirus machupoense): 39.8 nM
